In paper PMC10663143, “CALEOSIN 1 interaction with AUTOPHAGY-RELATED PROTEIN 8 facilitates lipid droplet microautophagy in seedlings” (Plant Physiology, 2023):

Molecular target: T1, CALEOSIN 2 (CLO2), Cub fusion (Arabidopsis thaliana, UniProt Q9FLN9 1-243)
T1 construct: CALEOSIN 2 of Arabidopsis thaliana; the coding region was amplified and inserted into pMetYCgate; Bait; source: yeast split-ubiquitin fusion (pMetYCgate, S. cerevisiae THY.AP4)
Assay: two-hybrid; mating-based split-ubiquitin system in yeast; Cub fusions as bait, NubG fusions as prey; quantitative β-galactosidase assay (Beta-Glo), activity normalized to a reference pair
Conditions: partners not purified

T1 sequence (Q9FLN9 whole entry, the tested form may be a part): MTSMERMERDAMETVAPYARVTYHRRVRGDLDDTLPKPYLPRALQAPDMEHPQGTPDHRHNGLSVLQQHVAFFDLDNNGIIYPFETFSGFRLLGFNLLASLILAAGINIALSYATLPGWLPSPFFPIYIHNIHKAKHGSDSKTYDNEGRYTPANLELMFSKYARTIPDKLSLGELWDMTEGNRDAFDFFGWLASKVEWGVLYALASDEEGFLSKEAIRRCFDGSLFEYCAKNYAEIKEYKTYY

B1: AUTOPHAGY-RELATED PROTEIN 8b (ATG8b), NubG fusion (natural protein, Arabidopsis thaliana, UniProt Q9XEB5 1-117, looked up)
chain: MEKNSFKLSNPLEMRMAESTRIRAKYPERVPVIVEKAGQSDVPDIDKKKYLVPADLTIGQFVYVVRKRIKLGAEKAIFVFVKNTLPPTAALMSAIYEEHKDEDGFLYMTYSGENTFG
notes: AUTOPHAGY-RELATED PROTEIN 8b of Arabidopsis thaliana; the coding region was amplified and inserted into pNXgate32-3HA; Prey; source: yeast split-ubiquitin fusion (pNXgate32-3HA, S. cerevisiae THY.AP5)
B1 was tested. Which “fold weaker β-galactosidase activity than with CLO1, CLO3 and OLE1” value did it give?
Its value is 2 fold.
